Assay results published in patent publication US20260337278 (published 2026).

How the values were obtained:
[1] = target: EGFR (wild-type, His-tagged or biotinylated) (human, UniProt P00533); assay: BLI
[2] = target: EGFRvIII (human, UniProt P00533); assay: BLI

Row | Binder | Kd [1] | Kd [2]
1 | SI-95X49 (antibody) chain 1: not shown chain 2: EIVLTQSPSTLSVSPGERATFSCRASQSIGTNIHWYQQKPGKPPRLLIKYASESISGIPDRFSGSGSGTEFTLTISSVQSEDFAVYYCQQNFNWPTTFGPGTKLTVLRTVAAPSVFIFPPSDEQLKSGTASVVCLLNNFYPREAKVQWKVDNALQSGNSQESVTEQDSKDSTYSLSSTLTLSKADYEKHKVYACEVTHQGLSSPVTKSFNRGEC | 17.6 nM | 0.291 nM
2 | SI-95X47 (antibody) chain 1: not shown chain 2: EIVLTQSPSTLSVSPGERATFSCRASQSIGTNIHWYQQKPGKPPRLLIKYASESISGIPDRFSGSGSGTEFTLTISSVQSEDFAVYYCQQNNNWPTTFGPGTKLTVLRTVAAPSVFIFPPSDEQLKSGTASVVCLLNNFYPREAKVQWKVDNALQSGNSQESVTEQDSKDSTYSLSSTLTLSKADYEKHKVYACEVTHQGLSSPVTKSFNRGEC | 20.6 nM | 0.272 nM
3 | SI-95X56 (antibody) chain 1: not shown chain 2: DIVMTQSPSSVSLSLGDRVTITCHSSQDINSNIGWLQQKPGKAFKGLIYHGTNLDDGVPSRFSGSGSGADYTLTISSLQAEDFATYYCVQYAQFPWTFGPGTKLEIKRTVAAPSVFIFPPSDEQLKSGTASVVCLLNNFYPREAKVQWKVDNALQSGNSQESVTEQDSKDSTYSLSSTLTLSKADYEKHKVYACEVTHQGLSSPVTKSFNRGEC | 6.88 nM | 1.93 nM
4 | SI-95X52 (antibody) chain 1: not shown chain 2: DIVMTQSPSSVSLSLGDRVTITCHSSQDINSNIGWLQQKPGKAFKGLIYHGTNLDDGVPSRFSGSGSGADYTLTISSLQAEDFATYYCVQYAQFPWTFGPGTKLEIKRTVAAPSVFIFPPSDEQLKSGTASVVCLLNNFYPREAKVQWKVDNALQSGNSQESVTEQDSKDSTYSLSSTLTLSKADYEKHKVYACEVTHQGLSSPVTKSFNRGEC | 19.3 nM | 1.47 nM
5 | SI-95X54 (antibody) chain 1: not shown chain 2: DIVMTQSPSSVSLSLGDRVTITCHSSQDINSNIGWLQQKPGKAFKGLIYHGTNLDDGVPSRFSGSGSGADYTLTISSLQAEDFATYYCVQYAQFPWTFGPGTKLEIKRTVAAPSVFIFPPSDEQLKSGTASVVCLLNNFYPREAKVQWKVDNALQSGNSQESVTEQDSKDSTYSLSSTLTLSKADYEKHKVYACEVTHQGLSSPVTKSFNRGEC | 25.7 nM | 1.37 nM
6 | SI-95X53 (antibody) chain 1: not shown chain 2: DIVMTQSPSSVSLSLGDRVTITCHSSQDINSNIGWLQQKPGKAFKGLIYHGTNLDDGVPSRFSGSGSGADYTLTISSLQAEDFATYYCVQYAQFPWTFGPGTKLEIKRTVAAPSVFIFPPSDEQLKSGTASVVCLLNNFYPREAKVQWKVDNALQSGNSQESVTEQDSKDSTYSLSSTLTLSKADYEKHKVYACEVTHQGLSSPVTKSFNRGEC | 18.2 nM | 1.28 nM
7 | SI-95X58 (antibody) chain 1: not shown chain 2: EIVLTQSPSTLSVSPGERATFSCRASQSIGTNIHWYQQKPGKPPRLLIKYASESISGIPDRFSGSGSGTEFTLTISSVQSEDFAVYYCQQNNNWPTTFGPGTKLTVLRTVAAPSVFIFPPSDEQLKSGTASVVCLLNNFYPREAKVQWKVDNALQSGNSQESVTEQDSKDSTYSLSSTLTLSKADYEKHKVYACEVTHQGLSSPVTKSFNRGECGGGGSGGGGGSGGGGSGGGGSQVQLQESGPSLVKPSQTLSLTCTVSGYSITSDFAWNWIRQFPGRKLEWMGYISYSGNTRYNPSLKSRFTISRDTSKNQFYLKLRSVTIADTAVYYCVTAGRGFPYWGQGTLVTVSSGGGGSGGGGSGGGGSDIVMTQSPSSVSLSLGDRVTITCHSSQDINSNIGWLQQKPGKAFKGLIYHGTNLDDGVPSRFSGSGSGADYTLTISSLQAEDFATYYCVQYAQFPWTFGPGTKLEIK | 16 nM | 0.807 nM
8 | SI-95X60 (antibody) chain 1: not shown chain 2: EIVLTQSPSTLSVSPGERATFSCRASQSIGTNIHWYQQKPGKPPRLLIKYASESISGIPDRFSGSGSGTEFTLTISSVQSEDFAVYYCQQNNNWPTTFGPGTKLTVLRTVAAPSVFIFPPSDEQLKSGTASVVCLLNNFYPREAKVQWKVDNALQSGNSQESVTEQDSKDSTYSLSSTLTLSKADYEKHKVYACEVTHQGLSSPVTKSFNRGECGGGGSGGGGGSGGGGSGGGGSQVQLQESGPSLVKPSQTLSLTCTVSGYSITSDFAWNWIRQFPGRKLEWMGYISYSGNTRYNPSLKSRFTISRDTSKNQFYLKLRSVTIADTAVYYCVTAGRGFPYWGQGTLVTVSSGGGGSGGGGSGGGGSDIVMTQSPSSVSLSLGDRVTITCHSSQDINSNIGWLQQKPGKAFKGLIYHGTNLDDGVPSRFSGSGSGADYTLTISSLQAEDFATYYCVQYAQFPWTFGPGTKLEIK | 4.98 nM | 1.95 nM
9 | SI-95X62 (antibody) chain 1: not shown chain 2: EIVLTQSPSTLSVSPGERATFSCRASQSIGTNIHWYQQKPGKPPRLLIKYASESISGIPDRFSGSGSGTEFTLTISSVQSEDFAVYYCQQNFNWPTTFGPGTKLTVLRTVAAPSVFIFPPSDEQLKSGTASVVCLLNNFYPREAKVQWKVDNALQSGNSQESVTEQDSKDSTYSLSSTLTLSKADYEKHKVYACEVTHQGLSSPVTKSFNRGECGGGGSGGGGGSGGGGSGGGGSQVQLQESGPSLVKPSQTLSLTCTVSGYSITSDFAWNWIRQFPGRKLEWMGYISYSGNTRYNPSLKSRFTISRDTSKNQFYLKLRSVTIADTAVYYCVTAGRGFPYWGQGTLVTVSSGGGGSGGGGSGGGGSDIVMTQSPSSVSLSLGDRVTITCHSSQDINSNIGWLQQKPGKAFKGLIYHGTNLDDGVPSRFSGSGSGADYTLTISSLQAEDFATYYCVQYAQFPWTFGPGTKLEIK | 8.16 nM | 1.02 nM
10 | SI-95X59 (antibody) chain 1: not shown chain 2: EIVLTQSPSTLSVSPGERATFSCRASQSIGTNIHWYQQKPGKPPRLLIKYASESISGIPDRFSGSGSGTEFTLTISSVQSEDFAVYYCQQNNNWPTTFGPGTKLTVLRTVAAPSVFIFPPSDEQLKSGTASVVCLLNNFYPREAKVQWKVDNALQSGNSQESVTEQDSKDSTYSLSSTLTLSKADYEKHKVYACEVTHQGLSSPVTKSFNRGECGGGGSGGGGGSGGGGSGGGGSQVQLQESGPSLVKPSQTLSLTCTVSGYSITSDFAWNWIRQFPGRKLEWMGYISYSGNTRYNPSLKSRFTISRDTSKNQFYLKLRSVTIADTAVYYCVTAGRGFPYWGQGTLVTVSSGGGGSGGGGSGGGGSDIVMTQSPSSVSLSLGDRVTITCHSSQDINSNIGWLQQKPGKAFKGLIYHGTNLDDGVPSRFSGSGSGADYTLTISSLQAEDFATYYCVQYAQFPWTFGPGTKLEIK | 23.6 nM | 1.03 nM

Now those with a lower Kd [1], led by results:

Row | Kd [1] | Kd [2] | Binder
11 | 4.61 nM | 1.11 nM | SI-95X45 (antibody) chain 1: not shown chain 2: EIVLTQSPSTLSVSPGERATFSCRASQSIGTNIHWYQQKPGKPPRLLIKYASESISGIPDRFSGSGSGTEFTLTISSVQSEDFAVYYCQQNNNWPTTFGPGTKLTVLRTVAAPSVFIFPPSDEQLKSGTASVVCLLNNFYPREAKVQWKVDNALQSGNSQESVTEQDSKDSTYSLSSTLTLSKADYEKHKVYACEVTHQGLSSPVTKSFNRGEC
12 | 3.07 nM | 0.804 nM | SI-95X65 (antibody) chain 1: not shown chain 2: DILMTQSPSSMSVSLGDTVSITCHSSQDINSNIGWLQQRPGKSFKGLIYHGTNLDDEVPSRFSGSGSGADYSLTISSLESEDFADYYCVQYAQFPWTFGGGTKLEIKRTVAAPSVFIFPPSDEQLKSGTASVVCLLNNFYPREAKVQWKVDNALQSGNSQESVTEQDSKDSTYSLSSTLTLSKADYEKHKVYACEVTHQGLSSPVTKSFNRGEC
13 | 1.87 nM | 0.865 nM | SI-95X68 (antibody) chain 1: not shown chain 2: DILMTQSPSSMSVSLGDTVSITCHSSQDINSNIGWLQQRPGKSFKGLIYHGTNLDDEVPSRFSGSGSGADYSLTISSLESEDFADYYCVQYAQFPWTFGGGTKLEIKRTVAAPSVFIFPPSDEQLKSGTASVVCLLNNFYPREAKVQWKVDNALQSGNSQESVTEQDSKDSTYSLSSTLTLSKADYEKHKVYACEVTHQGLSSPVTKSFNRGEC
14 | 1.81 nM | 0.466 nM | SI-95X44 (antibody) chain 1: not shown chain 2: DILMTQSPSSMSVSLGDTVSITCHSSQDINSNIGWLQQRPGKSFKGLIYHGTNLDDEVPSRFSGSGSGADYSLTISSLESEDFADYYCVQYAQFPWTFGGGTKLEIKRTVAAPSVFIFPPSDEQLKSGTASVVCLLNNFYPREAKVQWKVDNALQSGNSQESVTEQDSKDSTYSLSSTLTLSKADYEKHKVYACEVTHQGLSSPVTKSFNRGEC
15 | 1.38 nM | 0.207 nM | SI-95X50 (antibody) chain 1: not shown chain 2: EIVLTQSPSTLSVSPGERATFSCRASQSIGTNIHWYQQKPGKPPRLLIKYASESISGIPDRFSGSGSGTEFTLTISSVQSEDFAVYYCQQNNNWPTTFGPGTKLTVLRTVAAPSVFIFPPSDEQLKSGTASVVCLLNNFYPREAKVQWKVDNALQSGNSQESVTEQDSKDSTYSLSSTLTLSKADYEKHKVYACEVTHQGLSSPVTKSFNRGEC
16 | 0.954 nM | 1.16 nM | SI-95X40 (antibody) chain 1: not shown chain 2: DIQMTQSPSSLSASVGDRVTITCRSSQNIVHSNGNTYLDWYQQTPGKAPKLLIYKVSNRFSGVPSRFSGSGSGTDFTFTISSLQPEDIATYYCFQYSHVPWTFGQGTKLQITRTVAAPSVFIFPPSDEQLKSGTASVVCLLNNFYPREAKVQWKVDNALQSGNSQESVTEQDSKDSTYSLSSTLTLSKADYEKHKVYACEVTHQGLSSPVTKSFNRGEC
17 | 0.768 nM | 0.549 nM | SI-95X57 (antibody) chain 1: not shown chain 2: EIVLTQSPSTLSVSPGERATFSCRASQSIGTNIHWYQQKPGKPPRLLIKYASESISGIPDRFSGSGSGTEFTLTISSVQSEDFAVYYCQQNNNWPTTFGPGTKLTVLRTVAAPSVFIFPPSDEQLKSGTASVVCLLNNFYPREAKVQWKVDNALQSGNSQESVTEQDSKDSTYSLSSTLTLSKADYEKHKVYACEVTHQGLSSPVTKSFNRGECGGGGSGGGGGSGGGGSGGGGSQVQLQESGPSLVKPSQTLSLTCTVSGYSITSDFAWNWIRQFPGRKLEWMGYISYSGNTRYNPSLKSRFTISRDTSKNQFYLKLRSVTIADTAVYYCVTAGRGFPYWGQGTLVTVSSGGGGSGGGGSGGGGSDIVMTQSPSSVSLSLGDRVTITCHSSQDINSNIGWLQQKPGKAFKGLIYHGTNLDDGVPSRFSGSGSGADYTLTISSLQAEDFATYYCVQYAQFPWTFGPGTKLEIK
